In paper PMC5641629:

Target: penicillin binding protein 2a (PBP2a) lacking the N-terminal 40 amino acid membrane-spanning domain (Staphylococcus aureus (MRSA))
Experiment: SPR

| Substance | Kd [µM] | koff [s⁻¹] | kon [M⁻¹ s⁻¹] |
| --- | --- | --- | --- |
| BLIP-II D52A (from UniProt O87916 1-311) (natural protein) | 1.8 | 0.00061 | 354 |
| BLIP-II E268A (from UniProt O87916 1-311) (natural protein) | 4.7 |  | 424 |
| BLIP-II F209A (from UniProt O87916 1-311) (natural protein) | 6 | 0.00078 | 137 |
| BLIP-II I229A (from UniProt O87916 1-311) (natural protein) | 3.4 | 0.00115 | 339 |
| BLIP-II L91A (from UniProt O87916 1-311) (natural protein) | 4 | 0.00066 | 168 |
| BLIP-II N50A (from UniProt O87916 1-311) (natural protein) | 0.45 | 0.000719 | 1540 |
| BLIP-II N51A (from UniProt O87916 1-311) (natural protein) | 0.7 | 0.00086 | 1270 |
| BLIP-II N112A (from UniProt O87916 1-311) (natural protein) | 1.2 | 0.0014 | 1190 |
| BLIP-II S169A (from UniProt O87916 1-311) (natural protein) | 1.4 | 0.00074 | 504 |
| BLIP-II T57A (from UniProt O87916 1-311) (natural protein) | 0.6 | 0.00095 | 1750 |
| BLIP-II W152A (from UniProt O87916 1-311) (natural protein) |  | 0.0012 | 185 |
| BLIP-II W269A (from UniProt O87916 1-311) (natural protein) | 3.1 | 0.00116 | 375 |
| BLIP-II Y73A (from UniProt O87916 1-311) (natural protein) | 1.2 | 0.00119 | 961 |
| BLIP-II Y113A (from UniProt O87916 1-311) (natural protein) | 4 |  | 217 |
| BLIP-II Y248A (from UniProt O87916 1-311) (natural protein) |  | 0.00086 | 114 |
